Target: the molecule itself
Assay: SEC-SAXS; Shodex KW-404 column coupled to SAXS (B21, Diamond); 12 mg/mL hPAH injected; 20 mM Hepes pH 7.0, 200 mM NaCl; 20 °C; no L-Phe (hPAH^free); molecular mass from the Porod volume

B1: Recombinant full-length wild-type human phenylalanine hydroxylase (His6-hPAH) (enzyme, UniProt P00439 1-452, looked up)
chain: MSTAVLENPGLGRKLSDFGQETSYIEDNCNQNGAISLIFSLKEEVGALAKVLRLFEENDVNLTHIESRPSRLKKDEYEFFTHLDKRSLPALTNIIKILRHDIGATVHELSRDKKKDTVPWFPRTIQELDRFANQILSYGAELDADHPGFKDPVYRARRKQFADIAYNYRHGQPIPRVEYMEEEKKTWGTVFKTLKSLYKTHACYEYNHIFPLLEKYCGFHEDNIPQLEDVSQFLQTCTGFRLRPVAGLLSSRDFLGGLAFRVFHCTQYIRHGSKPMYTPEPDICHELLGHVPLFSDRSFAQFSQEIGLASLGAPDEYIEKLATIYWFTVEFGLCKQGDSIKAYGAGLLSSFGELQYCLSEKPKLLPLELEKTAIQNYTVTEFQPLYYVAESFNDAKEKVRNFAATIPRPFSVRYDPYTQRIEVLDNTQQLKILADSINSEIGILCSALQKIK
notes: human phenylalanine hydroxylase, full-length wild type; The same protein was measured without L-Phe (hPAH^free) and with 1 mM L-Phe (hPAH^Phe); also called hPAH^free; hPAH^Phe; source: E. coli Top10 (pTrcHis-hPAH plasmid), purified (Ni-NTA; PD-10 into SEC buffer, then the beamline SEC column); not shown: His6 (with a 26-amino acid linker), N-terminal, kept
- stoichiometry N: 4

From PMC6754429, “Structure of full-length wild-type human phenylalanine hydroxylase by small angle X-ray scattering reveals substrate-induced conformational stability” (Scientific Reports, 2019)
